Measurements as given in the supplement of paper PMC9170038.

Tested on: MS2 coat protein
Test: apparent KD of MS2 coat protein; designed switch direction (-1 OFF switch, 1 ON switch): -1; higher = weaker reporter binding
In short: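 Transcription of designed RNA switches on Illumina chips was done by stalled E. coli RNA polymerase. SNAP-549-labelled MS2 coat protein was then titrated in doubling steps from 0.7 or 1.5 nM to 3 µM, with steps of 0.8–1.5 h at the lowest and 10–20 min at the highest concentration. The per-design median over clusters of curve-fitted normalised fluorescence is reported as apparent KD.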

[1] = input ligand: microRNA oligo, concentration not stated
[2] = Eterna round: R95, input ligand: microRNA oligo, concentration not stated
[3] = Eterna round: R95, input ligand: FMN 200 uM
[4] = Eterna round: R95, input ligand: none

Sequence | apparent KD of MS2 coat protein (input ligand: FMN 200 uM) [nM] | apparent KD of MS2 coat protein (input ligand: none) [nM] | apparent KD of MS2 coat protein [1] [nM] | apparent KD of MS2 coat protein [2] [nM] | apparent KD of MS2 coat protein [3] [nM] | apparent KD of MS2 coat protein [4] [nM]
GGCGAAGUAGGAUAUACAUGAGGAUCACCCAUGUAACCUAUAGGCGAAGAUCUUCUAUGUAGAAGGACUACGCU [jl-ex3-4.40 ViennaUCT mod] (Eterna round: R97, puzzle: Exclusion 3) | 15.3 | 15.3 | – | – | – | –
GGCGCACAUGAGGAUCACCCAUGUGAGGAUAUUAGGCGAUCGUCGAUAGACGAUAGCCUGAGAAGGCACAUGCC [Mat - Exclusion 1 - Eli Mod - D18] (Eterna round: R97, puzzle: Exclusion 1) | 188 | 29.3 | – | – | – | –
GGCGCCUGAGGAUAUCAGUCUGGAUCAGAAUAGAUCCUGACUGAGAAGGCACAUGAGGAUCACCCAUGUUCGCC [Eli 4x 4.28] (Eterna round: R97, puzzle: Exclusion 4) | 16.4 | 14.8 | – | – | – | –
GGCUGACAUGUAGGAUAUCUGCACGAUUAGUGCAGAGAAGGACAUGAGGAUCACCCAUGUAUAGCGACUUCGGUCGCAACAGCC [ENG1/2-A1] (Eterna round: R96, puzzle: Exclusion NG 1) | 155 | 40 | 31 | – | – | –
GGCUGACAUGUAGGAUAUCUGCACGUUUAGUGCAGAGAAGGACAUGAGGAUCACCCAUGUAUAGCGACUUCGGUCGCAACAGCC [ENG1/2-A2] (Eterna round: R96, puzzle: Exclusion NG 1) | 115 | 48.3 | 31.6 | – | – | –
GGGAAACAUGAGGAUCACCCAUGUAAUGAGCAUGGAAUCCCAGAGGAUAUCGCAUGUAUGAAUGUCGAGAAGGCUGACGUUAAA [Eternabot solution 6] (Eterna round: R96, puzzle: Exclusion NG 3) | 1030 | 207 | 198 | – | – | –
GGGAAACAUGAGGAUCACCCAUGUCAGGAUAUGAUACUAUGUACUUCGGUACAUAGUAUCAGAAGGGACAUCAU [Ex1-3: 13] (puzzle: Exclusion 1) | – | – | – | 79.2 | – | –
GGGAAGAACCAACAAGCAAACAUGAGGAUCACCCAUGUUAGUGGUUCGAAUGUAAAGAUUAAGAGAGCUCGUCUUAU [AK-miRNA-r3-9] (Eterna round: R97, puzzle: Sensor, turn-off variant 1) | 18 | 20.2 | – | – | – | –
GGGAAGAACCAACAAGUAGACAUGAGGAUCACCCAUGUAGACUUCAUGUAGGAAAGGAAAGGAAGAGCUCGUCUUAU [AK-miRNA-r3-12] (Eterna round: R97, puzzle: Sensor, turn-off variant 1) | 21.6 | 28.5 | – | – | – | –
GGGAUGUCAGGAUAUCCGAAUAAUAACAACAAUAACAGAAAGGAGAAGGGACAUGAGGAUCACCCAUGUAAAAG [Bemadiin] (puzzle: Exclusion 4) | – | – | – | 37.5 | 39.9 | 40
GGGCCCGGAGGAUAUACAUGAGGAUCACCCAUGUAGCGCGCGCGUAUUUGUGUGUGUUGUAGAAGGCCGGGCCC [-36.6, -33.8 kcal, A 19%, 6-0] (Eterna round: R97, puzzle: Exclusion 3) | 57.9 | 17.9 | – | – | – | –
GGGCCCGGUGUGAGGAUAUCGGGCCCGAAAGGGUUUGAGAAGGCACAUGAGGAUCACCCAUGUAAGCCGGGCCC [-41.1, -39 kcal, A 23%, 5b-0] (Eterna round: R97, puzzle: Brourd's mod of Exclusion 4) | 17.1 | 15.3 | – | – | – | –
GGGCCCGGUGUGAGGAUAUCGGGCUCGAAAGGGCUCGAGAAGGCACAUGAGGAUCACCCAUGUAAGCCGGGCCC [-42.6, -40.5 kcal, A 23%, 4-0] (Eterna round: R97, puzzle: Brourd's mod of Exclusion 4) | 15.2 | 18.6 | – | – | – | –
GGGCGUAGGCAGGAUAUGUAAGGCUGUUGGUCUAUAGAAGGGUUUACAUGAGGAUCACCCAUGUGACCGAACCG [Eternabot (L2) Solution 16] (Eterna round: R97, puzzle: Exclusion 6) | 18.2 | 16.4 | – | – | – | –
GGGCUCGGUGUGAGGAUAUCGGGCCCGAAAGGGCCCGAGAAGGCACAUGAGGAUCACCCAUGUAAGUCGGGCUC [-38.1, -37 kcal, A 23%, 0-4] (Eterna round: R97, puzzle: Brourd's mod of Exclusion 4) | 13.6 | 14.1 | – | – | – | –
GGGUAGUUAGGAUAUCAGACUAGCUGCUCAACAGCAGCAGCUGAGAAGGGACUUGAGGAUCACCCAAGUGGAAG [Ceisis] (Eterna round: R97, puzzle: Exclusion 4) | 64.9 | 70.1 | – | – | – | –
GGGUGCAGGCUGAGGUCCUACAUGAGGAUCACCCAUGUGGUCCGGUGACGUGAGUCACCGGACUUGGCUCGUCUUGU [salish99_S_TOV1_R5_010] (Eterna round: R97, puzzle: Sensor, turn-off variant 1) | 41.5 | 50.5 | – | – | – | –
GGGUUGGUAGGAUAUACAUGAGGAUCACCCAUGUCAUGUCGUCGGGAAAGAUCUUUCCGUAGAAGGGCCACCCG [Eternabot (L2) Solution 52] (Eterna round: R97, puzzle: Exclusion 3) | 97 | 28 | – | – | – | –
GGGUUUCCGCAGGAUAUACGAUGGCGCAAUGUAGUAGAAGGGCGGACAUGAGGAUCACCCAUGUUCGUUCCUCG [EX6 C.25] (Eterna round: R97, puzzle: Exclusion 6) | 26.4 | 14.6 | – | – | – | –
GGGUUUGGAGGAUAUACAUGAGGAUCACCCAUGUACCCGGGCCCUAUUGGGUUUGGGUGUAGAAGGCCGGGCCC [-33.9, -31.3 kcal, A 19%, 5bbis,5b] (Eterna round: R97, puzzle: Exclusion 3) | 20.4 | 17.7 | – | – | – | –
GGUAAGCUAGGAUAUGCUUUGGGAAAGCAUUCCUUCGAUAAACUUGAGGAUCACCCAAGUAGAAGGAGCUUACC [salish99_ex2_r4_016] (Eterna round: R97, puzzle: Exclusion 2) | 19.8 | 11.8 | – | – | – | –
GGUAAGCUAGGAUAUGCUUUGGGAAAGCAUUCCUUCGAUAAACUUGAGGAUCACCCAAGUAGAAGGAGCUUACG [salish99_ex2_r4_015] (Eterna round: R97, puzzle: Exclusion 2) | 16.7 | 12.8 | – | – | – | –
GGUACUAACACGAAAGUGUUAGUACAAUAAGCUUGUGAAACAUGAGGAUCACCCAUGUCCUCAUAAGCUCGUCUUAA [salish99_TOv2_r3_004] (puzzle: Sensor v3, turn-off variant 2) | – | – | – | 238 | 14.4 | 13.3
GGUACUAACACGAAAGUGUUAGUACAAUAAGCUUGUGUUACAUGAGGAUCACCCAUGUCCUCAUAAGCUCGUCUUAU [Mat - Sensor v3 - Turn-off var 2 - D52] (puzzle: Sensor v3, turn-off variant 2) | – | – | – | 38.8 | 112 | 126
GGUAGAGUGGUAGGAUAUCCGACUGUUUCAGACGGAGAAGGACCACAGUCACUGGGUCCAAAUAUCAUGGAGACCUGAUCUACC [pwkr exNG1 F6.8] (Eterna round: R96, puzzle: Exclusion NG 1) | 983 | 634 | 556 | – | – | –
GGUAUACAUGAGGAUCACCCAUGUCAGGAUAUGGAAACCUGUGCCGAAAGGCACAGGGCCAGAAGGGACGAUAG [AK-MS2ROC-r4-exclusion1-5.3] (Eterna round: R97, puzzle: Exclusion 1) | 93.7 | 82.9 | – | – | – | –
GGUCAGACGGUAGGAUAUCCAUAUCGAGUGACCUUUUCAUAACAUGAGGAUCACCCAUGUCGGUGGGAGAAGGGCCGUACGGCG [salish99_ExNG02_R04_004] (Eterna round: R96, puzzle: Exclusion NG 2) | 114 | 93.2 | 78.2 | – | – | –
GGUCAGACGGUAGGAUAUCCAUAUUGAGUGACCCUUUCAUAACAUGAGGAUCACCCAUGUCGGUGGGAGAAGGGCCGUACGGCG [salish99_ExNG02_R04_006] (Eterna round: R96, puzzle: Exclusion NG 2) | 205 | 411 | 214 | – | – | –
GGUCCACAUGAGGAUCACCCAUGUGAGGAUAUGCAGCGGGAGCCGCCGCCGAACCGAUGUAGAAGGCACACCUG [Eternabot (Original) Solution 19] (Eterna round: R97, puzzle: Exclusion 1) | 19 | 20.4 | – | – | – | –
GGUCCACAUGAGGAUCACCCAUGUUAGGAUAUCUCGCCCGAGUCGUUAUGGGCCAGGCAGAGAAGGAAUGUGAA [Cebeisve] (puzzle: Exclusion 1) | – | – | – | 18 | – | –
